Legend:
[1] = molecular target: T1, cynomolgus IL-13Rα1.ECR, N-terminal FLAG-tagged fusion protein (cynomolgus macaque, UniProt P78552 27-343 (human entry)); experiment: BIACORE, receptor ECR immobilized on CM5 chip, mAb in solution
T1 construct: also called cyIL-13Rα1; Cynomolgus IL13Rα.ECR; not shown: N-terminal FLAG tag from the pEFBOS-S-FLAG vector
T1 chain: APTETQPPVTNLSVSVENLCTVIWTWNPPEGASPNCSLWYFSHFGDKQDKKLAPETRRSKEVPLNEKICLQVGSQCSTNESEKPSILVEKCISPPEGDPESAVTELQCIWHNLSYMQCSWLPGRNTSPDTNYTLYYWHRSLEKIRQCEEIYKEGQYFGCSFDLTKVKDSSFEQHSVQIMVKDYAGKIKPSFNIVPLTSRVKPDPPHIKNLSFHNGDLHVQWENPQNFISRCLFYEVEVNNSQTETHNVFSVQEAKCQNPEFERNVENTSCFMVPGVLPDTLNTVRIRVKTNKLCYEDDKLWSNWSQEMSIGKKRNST

[2] = molecular target: T2, N-terminal FLAG-tagged fusion protein including most of the extracellular region of human IL-13Rα1 (human, UniProt P78552 29-343); experiment: as above
T2 construct: also called hIL-13Rα1.ECR; Human IL-13Rα1.ECR
T2 sequence: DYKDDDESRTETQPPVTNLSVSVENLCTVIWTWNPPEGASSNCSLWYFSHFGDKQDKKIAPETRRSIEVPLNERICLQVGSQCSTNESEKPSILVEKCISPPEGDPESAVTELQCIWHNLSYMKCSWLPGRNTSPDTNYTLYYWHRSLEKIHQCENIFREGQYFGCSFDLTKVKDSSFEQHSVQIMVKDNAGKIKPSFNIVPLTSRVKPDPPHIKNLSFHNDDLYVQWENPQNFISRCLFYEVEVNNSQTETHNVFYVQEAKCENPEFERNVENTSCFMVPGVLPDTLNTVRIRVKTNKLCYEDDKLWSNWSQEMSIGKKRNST

[3] = molecular target: T2, N-terminal FLAG-tagged fusion protein …; experiment: BIACORE, hIL-13Rα1.ECR immobilized on CM5 chip, mAb in solution, bivalent model
From the text: BIACORE™-Based Studies. […] Ethanolamine (1.0 M), pH 8.0 was used to quench residual active esters post hIL-13Rα1.ECR immobilization.
Sensorgrams generated were fitted to a bivalent ligand binding model to simultaneously derive association (kₐ) and dissociation (kd) rates and used to determine binding affinity (KD, Biaevaluation software, BIACORE™, Sweden).

B1: monoclonal antibody 8B4 (antibody, V domains shown)
VH: EVQVLESGGGLVQPGGSLRLSCAASGFTFSNYAMTWVRQAPGKGLEWVSTISGRGYSIYYADSVKGRFTISRDNSKNTVYLQMNSLRAEDTAVYYCAKEEGHWYFDVWGRGTLVTVSS
VL: EIVLTQSPDFQSVTPKEKVTITCRASQSIGSSLHWYQQKPDQSPKLLIKYASQSFSGVPSRFSGSGSGTDFTLTINSLEAEDAAAYYCHQSSSLPYTFGQGTKLEIK
Kd [1]: 0.59 nM | Kd [2]: 4.6 nM

B2: human monoclonal antibody 15F4 (antibody, V domains shown)
VH: QVQLVESGGGVVQPGRSLRLSCAASGFTFSSYGMHWVRQAPGKGLEWVAVIWDDGSNKYYEVSVKGRFTISRDNSKNTLYLQMNSLRVEDTAVYYCARDSNNWYVGVFDIWGQGTMVTVSS
VL: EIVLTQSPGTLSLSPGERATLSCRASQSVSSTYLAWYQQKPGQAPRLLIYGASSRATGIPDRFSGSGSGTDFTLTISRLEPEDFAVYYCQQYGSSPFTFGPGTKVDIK
notes: also called mAb 15F4; hybridoma ATCC PTA-6935
Kd [3]: ~2.17 nM

From patent US20110052597A1 (CSL, published 2011)
